From patent US20210107971A1 (UCB, published 2021)
No end group written: not given here.

Assays:
[1] = biological target: T1, human beta synuclein (rPeptide) (human, UniProt Q16143 1-134); test: Western blot, 1 microgram synuclein
T1 construct: also called rPeptide beta synuclein
Method: The binding of antibodies raised against human alpha synuclein to human beta synuclein were tested by Western blot using rPeptide beta synuclein. […] The membrane was blocked in PBS with 3% BSA and 0.1% Tween20. […] The blot was washed extensively in PBS with 0.1% Tween20, PBS and water. Chemi-luminescence was measured after addition of ECL Western blot substrate (Pierce).

[2] = biological target: T2, biotinylated peptide corresponding to residues 117 to 126 of human alpha synuclein (peptide PVDPDNEAYE) (human, also: biotinylated, site not given here); test: streptavidin-capture ELISA on biotinylated peptide PVDPDNEAYE, HRP anti-rabbit IgG Fc, TMB, OD 630 nm
T2 construct: Captured on streptavidin plates for ELISA
T2 peptide: PVDPDNEAYE

T1 sequence (Q16143 whole entry): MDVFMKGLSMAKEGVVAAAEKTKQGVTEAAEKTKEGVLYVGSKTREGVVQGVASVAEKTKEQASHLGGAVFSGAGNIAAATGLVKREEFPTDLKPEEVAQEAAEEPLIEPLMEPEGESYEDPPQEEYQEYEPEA

B1: monoclonal 6470 rabbit IgG1 (antibody, V domains shown)
VH: QSVEESGGRLVTPGTPLTLTCTVSGIDLSSHDMYWVRQAPGKGLEYIGAIYASGSTYYASWAKGRFTISKTSTTVDLKMTSLTTEDTATYFCARIHYGNSGGLWGQGTLVTVSS
VL: AIVMTQTPSSKSVAVGDTVTINCQASQSVYKNNYLAWFQQKPGQPPKQLIYGASTLASGVPSRFKGSGSGTQFTLTISDVVCDDAATYYCAGYKGGRNDGFAFGGGTEVVVKR
notes: Recombinant rabbit IgG1/kappa expressed in Expi293 cells
[1]
  binding result: no binding
[2]
  binding result: no binding
